{
  "source": "paper PMC6141027",
  "target": "griffithsin (GRFT)",
  "assay": "AUC",
  "data": [
    {"substance": "griffithsin (GRFT) (natural protein)", "values": [
      {"measurement": "stoichiometry N", "result": 2}
    ]}
  ]
}
